Target: T1, human IL-13 R130Q variant (R110Q of the mature chain) (human, UniProt P35225 35-146, Biotinylated on amines (NHS-LC-biotin, 4:1) in ELISA, panning and competition assays. The letters are unchanged.)
T1 construct: R130Q counts from Met 1 of the signal peptide, R110Q on the mature chain; Bought from Peprotech; also called IL-13 R110Q; b-R130Q
Assay: single-point (10 nM) phage Fab ELISA on biotinylated IL-13 R130Q

Row | Binder | Signal (% of Lc16Hc7)
1 | Fab clone 1H12 (IL-13-62 library) (Fab, V domains shown, Fab on phage pIX) VH: QVTLKESGPVLVKPTETLTLTCTVSGFSLSTYGMGVGWIRQPPGKALEWLAHIWWDDVKRYNPALKSRLTISKDTSKSQVVLTMTNMDPVDTATYYCARMGSDYDVWFDYWGQGTLVTVSS VL: EIVLTQSPATLSLSPGERATLSCRASKSISKYLAWYQQKPGQAPRLLIYSGSTLQSGIPARFSGSGSGTDFTLTISSLEPEDFAVYYCQQHDLGPYTFGQGTKLEIK | 111%
2 | Fab clone 3C01 (IL-13-62 library) (Fab, V domains shown, Fab on phage pIX) VH: QVTLKESGPVLVKPTETLTLTCTVSGFSLSTYGMGVGWIRQPPGKALEWLAHIWWDDVKRYNPALKSRLTISKDTSKSQVVLTMTNMDPVDTATYYCARMGSDYDVWFDYWGQGTLVTVSS VL: EIVLTQSPATLSLSPGERATLSCRASKSISKYLAWYQQKPGQAPRLLIYSGSTLQSGIPARFSGSGSGTDFTLTISSLEPEDFAVYYCQQHNFGPYTFGQGTKLEIK | 124%
3 | Fab clone 3F08 (IL-13-62 library) (Fab, V domains shown, Fab on phage pIX) VH: QVTLKESGPVLVKPTETLTLTCTVSGFSLSTYGMGVGWIRQPPGKALEWLAHIWWDDVKRYNPALKSRLTISKDTSKSQVVLTMTNMDPVDTATYYCARMGSDYDVWFDYWGQGTLVTVSS VL: EIVLTQSPATLSLSPGERATLSCRASKSISKYLAWYQQKPGQAPRLLIYSGSTLQSGIPARFSGSGSGTDFTLTISSLEPEDFAVYYCQQHLMGPYTFGQGTKLEIK | 111%
4 | Fab clone 2G06 (IL-13-62 library) (Fab, V domains shown, Fab on phage pIX) VH: QVTLKESGPVLVKPTETLTLTCTVSGFSLSTYGMGVGWIRQPPGKALEWLAHIWWDDVKRYNPALKSRLTISKDTSKSQVVLTMTNMDPVDTATYYCARMGSDYDVWFDYWGQGTLVTVSS VL: EIVLTQSPATLSLSPGERATLSCRASKSISKYLAWYQQKPGQAPRLLIYSGSTLQGGIPARFSGSGSGTDFTLTISSLEPEDFAVYYCQQHLDSPYTFGQGTKLEIK | 112%
5 | Fab clone 2A11 (IL-13-62 library) (Fab, V domains shown, Fab on phage pIX) VH: QVTLKESGPVLVKPTETLTLTCTVSGFSLSTYGMGVGWIRQPPGKALEWLAHIWWDDVKRYNPALKSRLTISKDTSKSQVVLTMTNMDPVDTATYYCARMGSDYDVWFDYWGQGTLVTVSS VL: EIVLTQSPATLSLSPGERATLSCRASKSISKYLAWYQQKPGQAPRLLIYSGSTLQSGIPARFSGSGSGTDFTLTISSLEPEDFAVYYCQQHSHGPYTFGQGTKLEIK | 132%
6 | Fab clone 4B10 (IL-13-62 library) (Fab, V domains shown, Fab on phage pIX) VH: QVTLKESGPVLVKPTETLTLTCTVSGFSLSTYGMGVGWIRQPPGKALEWLAHIWWDDVKRYNPALKSRLTISKDTSKSQVVLTMTNMDPVDTATYYCARMGSDYDVWFDYWGQGTLVTVSS VL: EIVLTQSPATLSLSPGERATLSCRASKSISKYLAWYQQKPGQAPRLLIYSGSTLQSGIPARFSGSGSGTDFTLTISSLEPEDFAVYYCQQHFWGPYTFGQGTKLEIK | 117%
7 | Fab clone 3D11 (IL-13-62 library) (Fab, V domains shown, Fab on phage pIX) VH: QVTLKESGPVLVKPTETLTLTCTVSGFSLSTYGMGVGWIRQPPGKALEWLAHIWWDDVKRYNPALKSRLTISKDTSKSQVVLTMTNMDPVDTATYYCARMGSDYDVWFDYWGQGTLVTVSS VL: EIVLTQSPATLSLSPGERATLSCRASKSISKYLAWYQQKPGQAPRLLIYSGSTLQSGIPARFSGSGSGTDFTLTISSLEPEDFAVYYCQQHLNGPYTFGQGTKLEIK | 136%
8 | Fab clone 3H12 (IL-13-62 library) (Fab, V domains shown, Fab on phage pIX) VH: QVTLKESGPVLVKPTETLTLTCTVSGFSLSTYGMGVGWIRQPPGKALEWLAHIWWDDVKRYNPALKSRLTISKDTSKSQVVLTMTNMDPVDTATYYCARMGSDYDVWFDYWGQGTLVTVSS VL: EIVLTQSPATLSLSPGERATLSCRASKSISKYLAWYQQKPGQAPRLLIYSGSTLQSGIPARFSGSGSGTDFTLTISSLEPEDFAVYYCQQHDSGPYTFGQGTKLEIK | 120%
9 | Fab clone 3G05 (IL-13-62 library) (Fab, V domains shown, Fab on phage pIX) VH: QVTLKESGPVLVKPTETLTLTCTVSGFSLSTYGMGVGWIRQPPGKALEWLAHIWWDDVKRYNPALKSRLTISKDTSKSQVVLTMTNMDPVDTATYYCARMGSDYDVWFDYWGQGTLVTVSS VL: EIVLTQSPATLSLSPGERATLSCRASKSISKYLAWYQQKPGQAPRLLIYSGSTLQSGIPARFSGSGSGTDFTLTISSLEPEDFAVYYCQQPLDSPYTFGQGTKLEIK | 108%
10 | Fab clone 2E07 (IL-13-62 library) (Fab, V domains shown, Fab on phage pIX) VH: QVTLKESGPVLVKPTETLTLTCTVSGFSLSTYGMGVGWIRQPPGKALEWLAHIWWDDVKRYNPALKSRLTISKDTSKSQVVLTMTNMDPVDTATYYCARMGSDYDVWFDYWGQGTLVTVSS VL: EIVLTQSPATLSLSPGERATLSCRASKSISKYLAWYQQKPGQAPRLLIYSGSTLQSGIPARFSGSGSGTDFTLTISSLEPEDFAVYYCQQPLEAPYTFGQGTKLEIK | 104%
11 | Fab clone 2D09 (IL-13-62 library) (Fab, V domains shown, Fab on phage pIX) VH: QVTLKESGPVLVKPTETLTLTCTVSGFSLSTYGMGVGWIRQPPGKALEWLAHIWWDDVKRYNPALKSRLTISKDTSKSQVVLTMTNMDPVDTATYYCARMGSDYDVWFDYWGQGTLVTVSS VL: EIVLTQSPATLSLSPGERATLSCRASKSISKYLAWYQQKPGQAPRLLIYSGSTLQSGIPARFSGSGSGTDFTLTISSLEPEDFAVYYCQQHNVGPYTFGQGTKLEIK | 108%
12 | Fab clone 3A10 (IL-13-62 library) (Fab, V domains shown, Fab on phage pIX) VH: QVTLKESGPVLVKPTETLTLTCTVSGFSLSTYGMGVGWIRQPPGKALEWLAHIWWDDVKRYNPALKSRLTISKDTSKSQVVLTMTNMDPVDTATYYCARMGSDYDVWFDYWGQGTLVTVSS VL: EIVLTQSPATLSLSPGERATLSCRASKSISKYLAWYQQKPGQAPRLLIYSGSTLQSGIPARFSGSGSGTDFTLTISSLEPEDFAVYYCQQHVWGPYTFGQGTKLEIK | 160%
13 | Fab clone 3G01 (IL-13-62 library) (Fab, V domains shown, Fab on phage pIX) VH: QVTLKESGPVLVKPTETLTLTCTVSGFSLSTYGMGVGWIRQPPGKALEWLAHIWWDDVKRYNPALKSRLTISKDTSKSQVVLTMTNMDPVDTATYYCARMGSDYDVWFDYWGQGTLVTVSS VL: EIVLTQSPATLSLSPGERATLSCRASKSISKYLAWYQQKPGQAPRLLIYSGSTLQSGIPARFSGSGSGTDFTLTISSLEPEDFAVYYCQQQDLGPYTFGQGTKLEIK | 122%
14 | Fab clone 3E03 (IL-13-62 library) (Fab, V domains shown, Fab on phage pIX) VH: QVTLKESGPVLVKPTETLTLTCTVSGFSLSTYGMGVGWIRQPPGKALEWLAHIWWDDVKRYNPALKSRLTISKDTSKSQVVLTMTNMDPVDTATYYCARMGSDYDVWFDYWGQGTLVTVSS VL: EIVLTQSPATLSLSPGERATLSCRASKSISKYLAWYQQKPGQAPRLLIYSGSTLQSGIPARFSGSGSGTDFTLTISSLEPEDFAVYYCQQHSIGPYTFGQGTKLEIK | 122%
15 | Fab clone 2A07 (IL-13-62 library) (Fab, V domains shown, Fab on phage pIX) VH: QVTLKESGPVLVKPTETLTLTCTVSGFSLSTYGMGVGWIRQPPGKALEWLAHIWWDDVKRYNPALKSRLTISKDTSKSQVVLTMTNMDPVDTATYYCARMGSDYDVWFDYWGQGTLVTVSS VL: EIVLTQSPATLSLSPGERATLSCRASKSISKYLAWYQQKPGQAPRLLIYSGSTLQSGIPARFSGSGSGTDFTLTISSLEPEDFAVYYCQQHDPGPYTFGQGTKLEIK | 136%

— US20120045438A1 (Janssen / Centocor, published 2012)
